Data on 15 molecules can be found in US20260265385A1 (ANAPTYSBIO, published 2026).

For experiment [1], the target named is T1, recombinant human IL-2Rβ (extracellular domain, Ala1-Thr215) (human, UniProt P14784 27-240).
T1 construct: extracellular domain; Analyte in SPR; Ala1-Thr215 is counted on the mature protein; also called human LL-2Rβ; Human IL-2RB
T1 sequence (looked up): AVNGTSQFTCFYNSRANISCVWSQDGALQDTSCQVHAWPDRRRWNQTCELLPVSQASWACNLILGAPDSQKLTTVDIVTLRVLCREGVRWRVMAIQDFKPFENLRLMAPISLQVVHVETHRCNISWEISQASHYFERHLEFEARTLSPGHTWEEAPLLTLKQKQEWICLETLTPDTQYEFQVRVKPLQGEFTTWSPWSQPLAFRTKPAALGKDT
Description: SPR, antibody captured on Protein A chip. As to the method: (§1) Surface plasmon resonance (SPR) was used to determine the binding affinities. The M6-1625 and M10-1275 antibodies were captured onto a Cytiva Protein A Chip for 60 seconds at 0.5 μg/mL for 60 seconds. The antibodies were exposed to recombinant human LL-2Rβ or cynomolgus LL-2Rβ (corresponding to residues Ala1-Thr215 of the extracellular domains excluding the signal peptide) at typical concentrations ranging from 0.4 nM to 11 nM with typical 300 second associations and 1200 second dissociations using a BiacoreS200 instrument. Sensorgrams were fit globally using a 1:1 binding model in the Biacore T200 Evaluation Software to calculate on- and off-rates and KD values.
For orientation: SPR reads the build-up and loss of mass on a sensor chip optically.

In experiment [2] the target is T2, recombinant cynomolgus IL-2Rβ (extracellular domain, Ala1-Thr215) (cynomolgus, UniProt Q38J85 27-240).
T2 construct: extracellular domain; Analyte in SPR; also called cynomolgus LL-2Rβ; Cyno IL-2RB
T2 sequence (looked up): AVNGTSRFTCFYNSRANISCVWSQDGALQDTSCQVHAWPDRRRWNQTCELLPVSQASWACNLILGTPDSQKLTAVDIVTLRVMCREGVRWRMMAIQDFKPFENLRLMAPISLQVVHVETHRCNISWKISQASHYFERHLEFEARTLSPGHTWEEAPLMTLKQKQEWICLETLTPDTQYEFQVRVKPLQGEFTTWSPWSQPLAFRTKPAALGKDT
As to the kind of experiment: SPR, antibody captured on Protein A chip. As to the method: as §1

By Kd is commonly meant the equilibrium constant for the complex coming apart.

B1: APE14946 (antibody, V domains shown)
VH: QVQLVQSGAEVKKPGASVKVSCKASGYTFSRYWIEWVRQAPGQGLEWMGEILPGSGSINHNEKFQGRVTFTADTSTSTVYMELSSLRSEDTAVYFCTRHYGSFDYWGQGTTVTVSS
VL: DIQMTQSPSSLSASVGDRVTITCKASQNVGTDVAWYQQKPGKAPKSLIYSASYRYSGVPSRFSGSGSGTDFTLTISSLQPEDFATYFCHQYSSYPFTFGQGTKLEIKR
notes: M6-p1625 series
On to B1, for which the Kd was 0.357 nM in experiment [1] and 0.255 nM in experiment [2].

B2: APE14951 (antibody, V domains shown)
VH: QVQLVQSGAEVKKPGASVKVSCKASGYTFSRYWIEWVRQAPGQGLEWMGEILPGSGSINHNEKFQGRVTMTRDTSTSTVYMELSSLRSEDTAVYYCTRHYGSFDYWGQGTTVTVSS
VL: DIQMTQSPSSLSASVGDRVTITCKASQNVGTDVAWFQQKPGKAPKSLIYSASYRYNGVPSRFSGSGSGTDFTLTISSLQPEDFATYYCHQYSSYPFTFGQGTKLEIKR
notes: M6-p1625 series
With B2, the Kd is 0.804 nM in experiment [1] and 0.584 nM in experiment [2].

B3: APE14947 (antibody, V domains shown)
VH: QVQLVQSGAEVKKPGASVKVSCKASGYTFSRYWIEWVRQAPGQGLEWMGEILPGSGSINHNEKFQGRVTFTADTSTSTVYMELSSLRSEDTAVYFCTRHYGSFDYWGQGTTVTVSS
VL: DIQMTQSPSSLSASVGDRVTITCKASQNVGTDVAWFQQKPGKAPKSLIYSASYRYNGVPSRFSGSGSGTDFTLTISSLQPEDFATYYCHQYSSYPFTFGQGTKLEIKR
notes: M6-p1625 series
Consider B3, for which the results for the Kd in experiment [1] and in experiment [2] were 1.46 nM and 0.977 nM, respectively.

B4: APE15092 (antibody, V domains shown)
VH: QVQLVQSGAEVKKPGASVKVSCKASGYTFSRYWIQWVRQAPGQGLEWMGEILPGSGSINHNEKFQGRVTMTRDTSTSTVYMELSSLRSEDTAVYYCTRHYGSFDYWGQGTTVTVSS
VL: DIQMTQSPSSLSASVGDRVTITCKASQNVGTDVAWYQQKPGKAPKSLIYSASYRYSGVPSRFSGSGSGTDFTLTISSLQPEDFATYFCHQYSSYPFTFGQGTKLEIKR
notes: M6-p1625 series
For B4, the Kd in experiment [2] was found to be 0.126 nM.

B5: APE15088 (antibody, V domains shown)
VH: QVQLVQSGAEVKKPGASVKVSCKASGYTFSRYWIEWVRQAPGQGLEWMGEILPGSGSINHNEKFQGRVTMTRDTSTSTVYMELSSLRSEDTAVYYCTRHYGSFDYWGQGTTVTVSS
VL: DIQMTQSPSSLSASVGDRVTITCKASQNVGTNVAWYQQKPGKAPKSLIYSASYRYSGVPSRFSGSGSGTDFTLTISSLQPEDFATYFCHQYSSYPFTFGQGTKLEIKR
notes: M6-p1625 series
Consider B5, for which the Kd in experiment [1] is 16.4 nM; in experiment [2], 16.7 nM.

B6: APE14949 (antibody, V domains shown)
VH: QVQLVQSGAEVKKPGASVKVSCKASGYTFSRYWIEWVRQAPGQGLEWMGEILPGSGSINHNEKFQGRVTFTADTSTSTVYMELSSLRSEDTAVYYCTRHYGSFDYWGQGTTVTVSS
VL: DIQMTQSPSSLSASVGDRVTITCKASQNVGTDVAWFQQKPGKAPKSLIYSASYRYNGVPSRFSGSGSGTDFTLTISSLQPEDFATYYCHQYSSYPFTFGQGTKLEIKR
notes: M6-p1625 series
As for B6, the values for the Kd in experiment [1] and in experiment [2] were 1.5 nM and 1 nM, respectively.

B7: APE15085 (antibody, V domains shown)
VH: QVQLVQSGAEVKKPGASVKVSCKASGYTFSRYWIEWVRQAPGQGLEWMGEILPGSGSINHNEKFQGRVTMTRDTSTSTVYMELSSLRSEDTAVYYCTRHYGSFDYWGQGTTVTVSS
VL: DIQMTQSPSSLSASVGDRVTITCKASQNVGTDVAWYQQKPGKAPKSLIYSASYRYSGVPSRFSGSGSGTDFTLTISSLQPEDFATYFCHQYESYPFTFGQGTKLEIKR
notes: M6-p1625 series
In the case of B7, the Kd in experiment [1] stood at 0.158 nM; in experiment [2] it was 0.154 nM.

B8: APE15086 (antibody, V domains shown)
VH: QVQLVQSGAEVKKPGASVKVSCKASGYTFSRYWIEWVRQAPGQGLEWMGEILPGSGSINHNEKFQGRVTMTRDTSTSTVYMELSSLRSEDTAVYYCTRHYGSFDYWGQGTTVTVSS
VL: DIQMTQSPSSLSASVGDRVTITCKASQNVGTDVAWYQQKPGKAPKSLIYSASYRYSGVPSRFSGSGSGTDFTLTISSLQPEDFATYFCQQYSSYPFTFGQGTKLEIKR
notes: M6-p1625 series
Turning to B8, the Kd in experiment [1] was 0.305 nM; in experiment [2], 0.25 nM.

B9: APE15089 (antibody, V domains shown)
VH: QVQLVQSGAEVKKPGASVKVSCKASGYTFSRYWIEWVRQAPGQGLEWMGEILPGSGSINHNEKFQGRVTMTRDTSTSTVYMELSSLRSEDTAVYYCTRHYGSFDYWGQGTTVTVSS
VL: DIQMTQSPSSLSASVGDRVTITCKASQNVDTDVAWYQQKPGKAPKSLIYSASYRYSGVPSRFSGSGSGTDFTLTISSLQPEDFATYFCHQYSSYPFTFGQGTKLEIKR
notes: M6-p1625 series
As for B9, the figures for the Kd in experiment [1] and in experiment [2] were 1.04 nM and 9.39 nM, respectively.

B10: APE15091 (antibody, V domains shown)
VH: QVQLVQSGAEVKKPGASVKVSCKASGYTFSRYWINWVRQAPGQGLEWMGEILPGSGSINHNEKFQGRVTMTRDTSTSTVYMELSSLRSEDTAVYYCTRHYGSFDYWGQGTTVTVSS
VL: DIQMTQSPSSLSASVGDRVTITCKASQNVGTDVAWYQQKPGKAPKSLIYSASYRYSGVPSRFSGSGSGTDFTLTISSLQPEDFATYFCHQYSSYPFTFGQGTKLEIKR
notes: M6-p1625 series
B10: in experiment [2], the Kd is 0.345 nM.

B11: APE15090 (antibody, V domains shown)
VH: QVQLVQSGAEVKKPGASVKVSCKASGYTFSRYWIEWVRQAPGQGLEWMGEILPGSGSIDHNEKFQGRVTMTRDTSTSTVYMELSSLRSEDTAVYYCTRHYGSFDYWGQGTTVTVSS
VL: DIQMTQSPSSLSASVGDRVTITCKASQNVGTDVAWYQQKPGKAPKSLIYSASYRYSGVPSRFSGSGSGTDFTLTISSLQPEDFATYFCHQYSSYPFTFGQGTKLEIKR
notes: M6-p1625 series
With B11, the Kd in experiment [1] came out at 0.657 nM; in experiment [2], 0.44 nM.

B12: APE15087 (antibody, V domains shown)
VH: QVQLVQSGAEVKKPGASVKVSCKASGYTFSRYWIEWVRQAPGQGLEWMGEILPGSGSINHNEKFQGRVTMTRDTSTSTVYMELSSLRSEDTAVYYCTRHYGSFDYWGQGTTVTVSS
VL: DIQMTQSPSSLSASVGDRVTITCKASQNVGTEVAWYQQKPGKAPKSLIYSASYRYSGVPSRFSGSGSGTDFTLTISSLQPEDFATYFCHQYSSYPFTFGQGTKLEIKR
notes: M6-p1625 series
As to B12, the Kd in experiment [1] was 4.31 nM; in experiment [2] it was 3.56 nM.

B13: APE14948 (antibody, V domains shown)
VH: QVQLVQSGAEVKKPGASVKVSCKASGYTFSRYWIEWVRQAPGQGLEWMGEILPGSGSINHNEKFQGRVTFTADTSTSTVYMELSSLRSEDTAVYYCTRHYGSFDYWGQGTTVTVSS
VL: DIQMTQSPSSLSASVGDRVTITCKASQNVGTDVAWYQQKPGKAPKSLIYSASYRYSGVPSRFSGSGSGTDFTLTISSLQPEDFATYFCHQYSSYPFTFGQGTKLEIKR
notes: M6-p1625 series
For the molecule B13, the results for the Kd in experiment [1] and in experiment [2] were 0.358 nM and 0.266 nM, respectively.

B14: APE15093 (antibody, V domains shown)
VH: QVQLVQSGAEVKKPGASVKVSCKASGYTFTRYWIEWVRQAPGQGLEWMGEILPGSGSINHNEKFQGRVTMTRDTSTSTVYMELSSLRSEDTAVYYCTRHYGSFDYWGQGTTVTVSS
VL: DIQMTQSPSSLSASVGDRVTITCKASQNVGTDVAWYQQKPGKAPKSLIYSASYRYSGVPSRFSGSGSGTDFTLTISSLQPEDFATYFCHQYSSYPFTFGQGTKLEIKR
notes: M6-p1625 series
Take B14: the Kd in experiment [2] stood at 0.189 nM.

B15: APE14950 (antibody, V domains shown)
VH: QVQLVQSGAEVKKPGASVKVSCKASGYTFSRYWIEWVRQAPGQGLEWMGEILPGSGSINHNEKFQGRVTMTRDTSTSTVYMELSSLRSEDTAVYYCTRHYGSFDYWGQGTTVTVSS
VL: DIQMTQSPSSLSASVGDRVTITCKASQNVGTDVAWYQQKPGKAPKSLIYSASYRYSGVPSRFSGSGSGTDFTLTISSLQPEDFATYFCHQYSSYPFTFGQGTKLEIKR
notes: M6-p1625 series
In the case of B15, the Kd in experiment [1] came to 0.252 nM; in experiment [2], 0.192 nM.
